In patent US20260069656A1, “Nutritive Polypeptides and Formulations Thereof, and Methods of Production and Use Thereof” (Axcella Health Inc., priority 2013, published 2026):
Residue numbers refer to the chain shown, from its start. In names and notes the source's numbering stands.

B1: SEQID-00265: nutritive polypeptide (protein, listed as Bos taurus)
chain: SEGDRLRVELAEKANKLQNELDNVSTLLEEAEKKGIKFAKDAAGLESQLQDTQELLQEETRQKLNLSSRIRQLEEERSSLQEQQEEEEEARRSLEKQLQALQAQLTDTKKKVDDDLGTIENLEEAKKKLLKDVEVLSQRLEEKALAYDKLEKTKTRLQQELDDLLVDLDHQRQIVSNLEKKQKKFDQLLAEEKNISARYAEERDRAEAEAREKETKALSLARALEEALEAREEAERQNKQLRADMEDLMSSKDDVGKNVHELEKSKRALE
B2: R134M: single amino acid mutant of SEQID-00338 at substrate binding position 134 (protein, listed as Saccharomyces cerevisiae)
chain: MSSSESIRMVLIGPPGAGKGTQAPNLQERFHAAHLATGDMLRSQIAKGTQLGLEAKKIMDQGGLVSDDIMVNMIKDELTNNPACKNGFILDGFPRTIPQAEKLDQMLKEQGTPLEKAIELKVDDELLVARITGMLIHPASGRSYHKIFNPPKEDMKDDVTGEALVQRSDDNADALKKRLAAYHAQTEPIVDFYKKTGIWAGVDASQPPATVWADILNKLGKD
modifications: strain ATCC 204508 / S288c
B3: R42K: single amino acid mutant of SEQID-00338 at substrate binding position 42 (protein, listed as Saccharomyces cerevisiae)
chain: B2 chain with R42K, M134R
modifications: strain ATCC 204508 / S288c
B4: R42Q: single amino acid mutant of SEQID-00338 at substrate binding position 42 (protein, listed as Saccharomyces cerevisiae)
chain: B2 chain with R42Q, M134R
modifications: strain ATCC 204508 / S288c
B5: R42T: single amino acid mutant of SEQID-00338 at substrate binding position 42 (protein, listed as Saccharomyces cerevisiae)
chain: B2 chain with R42T, M134R
modifications: strain ATCC 204508 / S288c
B6: R42A: single amino acid mutant of SEQID-00338 at substrate binding position 42 (protein, listed as Saccharomyces cerevisiae)
chain: B2 chain with R42A, M134R
modifications: strain ATCC 204508 / S288c
B7: R134Y: single amino acid mutant of SEQID-00338 at substrate binding position 134 (protein, listed as Saccharomyces cerevisiae)
chain: B2 chain with M134Y
modifications: strain ATCC 204508 / S288c
B8: R42C: single amino acid mutant of SEQID-00338 at substrate binding position 42 (protein, listed as Saccharomyces cerevisiae)
chain: B2 chain with R42C, M134R
modifications: strain ATCC 204508 / S288c
B9: D91F: single amino acid mutant of SEQID-00338 at magnesium ion binding site position 91 (protein, listed as Saccharomyces cerevisiae)
chain: B2 chain with D91F, M134R
modifications: strain ATCC 204508 / S288c
B10: R42I: single amino acid mutant of SEQID-00338 at substrate binding position 42 (protein, listed as Saccharomyces cerevisiae)
chain: B2 chain with R42I, M134R
modifications: strain ATCC 204508 / S288c
B11: R42L: single amino acid mutant of SEQID-00338 at substrate binding position 42 (protein, listed as Saccharomyces cerevisiae)
chain: B2 chain with R42L, M134R
modifications: strain ATCC 204508 / S288c
B12: R42G: single amino acid mutant of SEQID-00338 at substrate binding position 42 (protein, listed as Saccharomyces cerevisiae)
chain: B2 chain with R42G, M134R
modifications: strain ATCC 204508 / S288c
B13: D91I: single amino acid mutant of SEQID-00338 at magnesium ion binding site position 91 (protein, listed as Saccharomyces cerevisiae)
chain: B2 chain with D91I, M134R
modifications: strain ATCC 204508 / S288c

What was measured:
[1] = pH solubility screen in Citric Acid / Dibasic Sodium Phosphate buffers; type: physicochemical
Experimental: pH Solubility. […] Protein was either lyophilized and then resuspended in buffer cocktail mixtures, or concentrated and then spiked into buffer cocktail mixtures at a final protein concentration of 5 to 30 mg/ml. As a control, protein was also dissolved in a solution of 8 M urea. Protein solutions were shaken for 10 min at room temperature. Turbidity of proteins was determined by measuring the absorbance of protein solutions at 650 nm. The protein solution was then centrifuged for 10 min at 1100×g to pellet undissolved or precipitated protein. The soluble protein fraction (supernatant) was sampled and protein concentration was measured by one or more of the following methods: Coomassie Plus Protein Assay (Pierce), Chip electrophoresis, gel electrophoresis, and/or absorbance at 280 nm. The pH range over which select proteins remained greater than 80% soluble as determined by Bradford and the A650 value are listed in Table E31C.

[2] = Thermostability, ProteoStat Thermal Shift Stability Kit, temperature of aggregation; type: physicochemical; details: pH 7.1; heated from 25° C. to 95° C.
Experimental: Thermostability. The thermostability of proteins in a buffer cocktail of Citric Acid and Dibasic Sodium Phosphate over a pH range of 2.8 to 7.1 (preparation described above in Table E31B) was determined using the ProteoStat® Thermal Shift Stability Kit (Enzo Life Sciences) according to the manufacturer's standard protocol. Briefly, protein solutions (˜10 mg/ml) containing 1× ProteoStat TS Detection Reagent were heated from 25° C. to 95° C. at a rate of 0.5° C. per 30 sec using a real-time PCR (rtPCR) thermocycler (BioRad) equipped with a plate reader (SynergyMx, Biotek) while monitoring the fluorescence with a Texas Red filter.

[3] = Intact half-life during simulated gastric fluid (SGF) digestion; details: SGF pH 1.5, pepsin:polypeptide 1:20 w/w, 37° C.; produced in E. coli unless otherwise noted
[4] = Solubility of proteins (lyophilized/reconstituted or ultrafiltered); details: produced in E. coli unless otherwise noted
Experimental: Solubility. […] Protein samples were dried by lyophilization on a FreeZone Freeze Dry System (Labconco) using the manufacturer's standard protocol and then resuspended in buffer to the desired concentration. Centrifugal and tangential ultrafiltration were used to selectively remove buffer from the protein sample until the desired concentration was reached. Centrifugal ultrafiltration of protein solutions was performed by centrifugation (10,000×g) of 10 mg of protein in an Amicon centrifugal filter (Millipore) with a molecular weight cutoff of 3 kDa, 10 kDa, or 30 kDa, depending on the protein size, until the desired contrentration was reached. Ultrafiltration of protein solutions was performed on Hydrosart ultrafiltration cassettes (Sartorius Stedim, Bohemia, NY) with a molecular weight cutoff of 3 kDa, 10 kDa, or 30 kDa, depending on the protein size, at a cross flow rate of 12 L/m2/min. For most processes, transmembrane pressure was maintained at 20 psi and performed until the desired contrentration was reached.
The protein concentration of the above samples was measured by one or a combination of the following methods: Coomassie Plus Protein Assay, absorbance at 280 nm (A280), and total amino acid analysis. Coomassie Plus Protein Assays (Pierce) were performed according to the manufacturer's protocol. Absorbance at 280 nm was measured on a Nanodrop 2000 UV-Vis spectrophotometer. Protein concentration was determined using the A280 value and molar extinction coefficient, which was calculated by primary amino acid sequence using ProtParam (Gasteiger, Elisabeth, et al. The proteomics protocols handbook. Humana Press, 2005. 571-607.). Total amino acids were analyzed by HPLC after acid hydrolysis as described in Henderson, J. W., et al. Agilent Technologies (2010).

[5] = system: kinase activity of SEQID-00338 (AMP + ATP→2ADP); assay: Kinase activity of SEQID-00338 and mutants, ADP-Glo Max Assay; type: biochemical; details: 7 μg/mL, 30 minute reaction at 30° C.; N=2
Experimental: Determination of the kinase activity of SEQID-00338. The ADP-Glo™ Max Assay was obtained from Promega (Catalog number V7001, Madison, WI). Adenosine Monophosphate was obtained from Sigma-Aldrich (Catalog number A1752, St. Louis, MO). 5× Kinase Buffer was prepared w/1.211 g Tris Base (Catalog number BP152-2, Fisher Bioreagents, Pittsburgh, PA), 692 μL 12% hydrochloric acid solution (Catalog number BDH3026-500MLP, VWR, Radnor, PA), 10.0 mL 500 mM magnesium chloride (Catalog number BP214-500, Fisher Bioreagents, Pittsburgh, PA) and the volume brought to 50 mL with MilliQ water and filtered through 0.22 μm PES filter (Catalog number SCGP00525, Millipore, Billerica, MA) into a sterile 50 mL tube.
Twelve his-tag purified mutant proteins and the wild-type protein at 35 μg/mL in Tris buffer were serially diluted to 7.0 and 1.4 μg/mL. Prepared kinase reaction mix at 0.5 mM AMP/0.5 mM ATP to test for activity and at 0 mM AMP/0 mM ATP to assay background activity by diluting 5× Kinase Buffer with appropriate volumes of 10 mM AMP and 10 mM ATP in MilliQ water. Duplicate reactions were prepared by mixing 9 μL of the reaction mixture with 6 μL of diluted SEQID-00338, mixing by pipetting up and down and dispensing 5 μL into a 384-well white OptiPlate (PerkinElmer, Waltham, MA). An ADP standard curve was prepared by serially diluting 4 mM ADP in MilliQ water and adding kinase buffer to 1× for a standard at 0.0005, 0.001, 0.005, 0.01, 0.05, 0.1, 1.5, 1, 2, 3, and 4 mM ADP. The plate was covered with a foil plate seal and incubated at 30° C. for 30 min. Following the kinase reaction, 5 μL of ADP-Glo™ Reagent was added to each well. The plate was sealed with a foil plate seal and placed on a horizontal plate shaker at 450 rpm for 2 minutes at room temperature. The plate was removed from the plate shaker and incubated at room temperature for 40 minutes. The plate was then centrifuged for 15 seconds at 1109× rcf and 10 μL of ADP-Glo™ Max Detection Reagent was added. The plate was sealed with a foil plate seal and shaken on a horizontal plate shaker at 450 rpm at room temperature for 2 minutes. The plate was then removed from the plate shaker and incubated at room temperature for 60 minutes. The plate was centrifuged for 15 seconds at 1109× rcf and the luminescence read on an EnspireAlpha plate reader (PerkinElmer, Waltham, MA).
The ADP standard curve was used to determine the concentration of ADP in sample wells in the presence or absence of substrate. Concentrations were determined by performing a non-linear 4 parameter logistic on the X=log(X) transformed ADP standard luminescence values. […] Where the background concentration of ADP in the absence of substrate was calculable the average of those values were subtracted from the calculated ADP concentration in the substrate incubated wells. Activity knock out was calculated by percentage activity relative to purified wild-type protein at the same concentration.

Molecule	AVG proportion activity, percentage AMP + ATP→2ADP converted relative to wild-type [5]	further results
B1		pH Range where Protein is >80% detected as Soluble and A650 <1 OD: Low ([1]; lower pH of range): 5.1; pH Range where Protein is >80% detected as Soluble and A650 <1 OD: Other ([1]; other pH where soluble): 3; pH Range where Protein is >80% detected as Soluble and A650 <1 OD: High ([1]; upper pH of range): 9.1; Tagg (pH 7.1) [2]: >95; SGF Half-life (t½) [3]: 29 min; Solubility [4]: 95 mg/mL
B2	0.3%	
B3	2.2%	
B4	1.2%	
B5	1.9%	
B6	0.9%	
B7	0.2%	
B8	1.8%	
B9	0.9%	
B10	1.5%	
B11	1.7%	
B12	1.2%	
B13	0.4%	
